Results taken from patent US20110166064A1.

Target: Insulin-like Growth Factor I Receptor (IGF-1R) (UniProt P08069)
Test: competitive displacement of 125I-IGF-I from IGF-1R, FIG. 9B

Sequence of Insulin-like Growth Factor I Receptor (IGF-1R) (P08069 31-1367 limits assumed): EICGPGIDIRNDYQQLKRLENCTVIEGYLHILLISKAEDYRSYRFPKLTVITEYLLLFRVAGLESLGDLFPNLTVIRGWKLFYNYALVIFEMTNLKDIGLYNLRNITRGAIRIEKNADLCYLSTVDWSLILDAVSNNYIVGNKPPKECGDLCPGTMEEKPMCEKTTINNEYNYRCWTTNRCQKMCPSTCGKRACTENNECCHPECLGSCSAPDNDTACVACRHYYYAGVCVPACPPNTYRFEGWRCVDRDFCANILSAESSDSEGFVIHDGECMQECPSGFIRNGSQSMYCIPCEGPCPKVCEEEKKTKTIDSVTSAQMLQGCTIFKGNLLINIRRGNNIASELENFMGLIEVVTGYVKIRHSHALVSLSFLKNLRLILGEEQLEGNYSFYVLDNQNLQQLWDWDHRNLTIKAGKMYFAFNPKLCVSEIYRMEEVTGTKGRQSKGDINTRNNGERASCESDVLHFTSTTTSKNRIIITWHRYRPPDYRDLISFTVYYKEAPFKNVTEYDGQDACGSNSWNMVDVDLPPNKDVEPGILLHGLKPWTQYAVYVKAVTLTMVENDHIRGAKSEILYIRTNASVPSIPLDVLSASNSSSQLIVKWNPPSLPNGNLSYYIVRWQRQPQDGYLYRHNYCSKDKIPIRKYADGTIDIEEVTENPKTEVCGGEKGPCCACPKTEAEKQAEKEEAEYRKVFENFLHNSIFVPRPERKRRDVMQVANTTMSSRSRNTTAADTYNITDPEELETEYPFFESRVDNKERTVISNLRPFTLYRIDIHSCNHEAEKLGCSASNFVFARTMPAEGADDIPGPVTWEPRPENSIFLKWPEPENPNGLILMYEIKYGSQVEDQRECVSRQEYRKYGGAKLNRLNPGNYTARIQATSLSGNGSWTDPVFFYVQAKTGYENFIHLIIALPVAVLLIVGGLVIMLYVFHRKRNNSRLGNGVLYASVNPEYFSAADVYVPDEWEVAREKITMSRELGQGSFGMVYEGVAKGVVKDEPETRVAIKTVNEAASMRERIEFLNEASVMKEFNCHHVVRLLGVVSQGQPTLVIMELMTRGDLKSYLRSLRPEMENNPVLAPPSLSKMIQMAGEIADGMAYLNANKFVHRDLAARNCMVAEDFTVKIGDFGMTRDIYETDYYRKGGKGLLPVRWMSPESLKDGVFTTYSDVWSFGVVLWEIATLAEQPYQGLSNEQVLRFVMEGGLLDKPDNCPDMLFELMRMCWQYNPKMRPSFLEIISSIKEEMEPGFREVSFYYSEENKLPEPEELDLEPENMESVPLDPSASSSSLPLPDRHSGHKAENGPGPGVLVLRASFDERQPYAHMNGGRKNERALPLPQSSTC

fold reduction of cross-binding relative to KP-insulin or wild-type insulin: 3 fold
Substance: 4Cl-Phe^B24-KP-insulin (ligand; para-monochloro-phenylalanine (4Cl-Phe) at B24; other documents disagree on this pair)
